B1: Ustekinumab (antibody, V domains shown)
VH: EVQLVQSGAEVKKPGESLKISCKGSGYSFTTYWLGWVRQMPGKGLDWIGIMSPVDSDIRYSPSFQGQVTMSVDKSITTAYLQWNSLKASDTAMYYCARRRPGQGYFDFWGQGTLVTVS
VL: DIQMTQSPSSLSASVGDRVTITCRASQGISSWLAWYQQKPEKAPKSLIYAASSLQSGVPSRFSGSGSGTDFTLTISSLQPEDFATYYCQQYNIYPYTFGQGTKLEIKR
notes: Anti-IL12 antibody; also called Ustenkinumab; Ustenikumab
B2: Emicizumab (bi-specific, displayed from pINT17-Bi-CMV-Emicizumab) (bispecific antibody, human IgG4 S228P)
light: DIQMTQSPSSLSASVGDRVTITCKASRNIERQLAWYQQKPGQAPELLIYQASRKESGVPDRFSGSRYGTDFTLTISSLQPEDIATYYCQQYSDPPLTFGGGTKVEIKRTAAAPSVFIFPPSDEQLKSGTASVVCLLNNFYPREAKVQWKVDNALQSGNSQESVTEQDSKDSTYSLSSTLTLSKADYEKHKVYACEVTHQGLSSPVTKSFNRGEC
heavy 1: QVQLVESGGGLVQPGGSLRLSCAASGFTFSYYDIQWVRQAPGKGLEWVSSISPSGQSTYYRREVKGRFTISRDNSKNTLYLQMNSLRAEDTAVYYCARRTGREYGGGWYFDYWGQGTLVTVSSASTKGPSVFPLAPCSRSTSESTAALGCLVKDYFPEPVTVSWNSGALTSGVHTFPAVLQSSGLYSLSSVVTVPSSSLGTQTYTCNVDHKPSNTKVDKRVESKYGPPCPPCPAPEFLGGPSVFLFPPKPKDTLMISRTPEVTCVVVDVSQEDPEVQFNWYVDGVEVHNAKTKPREEQYNSTYRVVSVLTVLHQDWLNGKEYKCKVSNKGLPSSIEKTISKAKGQPREPQVYTLPPSQKEMTKNQVSLTCLVKGFYPSDIAVEWESNGQPENNYKTTPPVLDSDGSFFLYSKLTVDKSRWQEGNVFSCSVMHEALHNRYTQKSLSLSPEQKLISEEDLNAVGQDTQEVIVVPHSLPFKVVVISAILALVVLTIISLIILIMLWQKKPR
heavy 2: QVQLVQSGSELKKPGASVKVSCKASGYTFTDNNMDWVRQAPGQGLEWMGDINTRSGGSIYNEEFQDRVIMTVDKSTDTAYMELSSLRSEDTATYHCARRKSYGYYLDEWGEGTLVTVSSASTKGPSVFPLAPCSRSTSESTAALGCLVKDYFPEPVTVSWNSGALTSGVHTFPAVLQSSGLYSLSSVVTVPSSSLGTQTYTCNVDHKPSNTKVDKRVESKYGPPCPPCPAPEFLGGPSVFLFPPKPKDTLMISRTPEVTCVVVDVSQEDPEVQFNWYVDGVEVHNAKTKPREEQYNSTYRVVSVLTVLHQDWLNGKEYKCKVSNKGLPSSIEKTISKAKGQPREPQVYTLPPSQEEMTKNQVSLTCLVKGFYPSDIAVEWESNGQPENNYKTTPPVLDSDGSFFLYSKLTVDKSRWQEGNVFSCSVMHEALHNHYTQESLSLSPEQKLISEEDLNAVGQDTQEVIVVPHSLPFKVVVISAILALVVLTIISLIILIMLWQKKPR
notes: also called bi-specific Emicizumab; knobs-into-holes common light chain IgG
B3: mono-specific anti-FIXa IgG (Emicizumab anti-FIXa VH with Emicizumab VL, pINT17-BSD-anti-FIXa) (antibody, V domains shown)
VH: QVQLVESGGGLVQPGGSLRLSCAASGFTFSYYDIQWVRQAPGKGLEWVSSISPSGQSTYYRREVKGRFTISRDNSKNTLYLQMNSLRAEDTAVYYCARRTGREYGGGWYFDYWGQGTLVTVSS
VL: DIQMTQSPSSLSASVGDRVTITCKASRNIERQLAWYQQKPGQAPELLIYQASRKESGVPDRFSGSRYGTDFTLTISSLQPEDIATYYCQQYSDPPLTFGGGTKVEIK
notes: also called mono-specific anti-FIXa arm in IgG format
B4: 337_1_C08 (antibody, V domains shown)
VH: EVQLVQSGAEVKRPGASVTVSCKASGYTFTNHGISWVRQAPGQGLEWMGWNSPYNGNTNYAQRFQGRVTMTTDTSTNTAYMELRTLTSDDTAMYYCARDRDYYDAGSYWGQGTLVTVSS
VL: SYELTQPPSVSVSPGQTARITCSGDSLPKQYAYWYQQKPGQAPVLVIYKDSERPSGIPERFSGSGSGTTVTLTISGVQAEDEADYYCQSADSDNAFVFGRGTKLTVL
notes: Anti-PD1 antibody identified by phage display; also called anti-PD1 antibody 337_1_C08; 337_C08

Legend:
[1] = molecular target: T1, unconjugated streptavidin-PE (UniProt P22629 37-163, limits assumed, phycoerythrin conjugate); assay: flow cytometry of HEK293 cells displaying the IgG, stained with streptavidin PE alone
T1 construct: Control staining reagent; also called streptavidin-PE alone
T1 sequence (P22629 37-163 limits assumed): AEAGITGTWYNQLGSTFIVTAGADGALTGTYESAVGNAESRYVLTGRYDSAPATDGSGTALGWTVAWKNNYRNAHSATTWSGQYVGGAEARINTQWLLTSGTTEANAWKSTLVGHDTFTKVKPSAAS

[2] = molecular target: T1, unconjugated streptavidin-PE; assay: flow cytometry of HEK293 cells 24 hours after transfection, stained with streptavidin-PE alone [panel Streptavidin PE]
PD-1 = molecular target: T2, PD-1 (UniProt Q15116 25-167, biotinylated in the MACS experiments); assay: surface plasmon resonance (SPR)
T2 construct: The catalogue number points to a human PD-1 reagent; also called biotinylated PD1 (PD1-H82E4, AcroBiosystems); PD-1-biotin
T2 sequence (Q15116 25-167 limits assumed): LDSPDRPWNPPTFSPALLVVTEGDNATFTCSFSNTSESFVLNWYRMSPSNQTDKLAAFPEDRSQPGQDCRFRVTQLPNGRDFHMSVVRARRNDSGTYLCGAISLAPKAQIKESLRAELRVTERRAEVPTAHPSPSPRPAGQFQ

| Binder | binding result [2] | further results |
| --- | --- | --- |
| B1 | – | binding result [1]: no binding |
| B2 | no binding | – |
| B3 | no binding | – |
| B4 | – | Kd (PD-1): 74 nM |

— patent US20210163923A1 (IONTAS, published 2021)
